Experiments:
[1] = target: T1, human FcγRI (CD64) on IFNγ-activated U937 cells (human, UniProt P12314 16-374); test: CD64 bridging assay, purified
T1 construct: whole, on cells; also called FcγR1

human C1q (Sigma C0660) = target: T2, human C1q (Sigma C0660) (human, UniProt P02745 23-245; P02746 28-253; P02747 29-245); test: C1q ELISA on CD2, purified
T2 construct: Bought protein; also called complement protein C1q
Method: The C1q binding assay was performed by coating 96 well Maxisorb ELISA plates (Nalge-Nunc Rochester, N.Y., USA) with 50 μl recombinant soluble human CD2 at 10 μg/ml overnight at 4° C. in PBS. The wells were aspirated and washed three times with wash buffer (PBS, 0.05% Tween 20) and blocked for >1 h with 200 μ/well of block/diluent buffer (0.1 M Na₂HPO₄, pH 7, 0.1 M NaCl, 0.05% Tween 20, 0.1% gelatin). The antibody to be tested was diluted in block/diluent buffer starting at 15 μg/ml with 3-fold dilutions. 50 μl were added per well, and the plates incubated for 2 h at room temperature. After aspirating and washing as above, 50 μl/well of 2 μg/ml of Sigma human C1q (C0660) diluted in block/diluent buffer was added and incubated for 1.5 h at room temperature. After aspirating and washing as above, 50 μl/well of chicken anti human C1q (Cedarlane laboratories CL2101AP), diluted 2,000-fold in block/diluent buffer, was added. After incubation for 1.5 h at room temperature, the wells were aspirated and washed as above. 50 μl/well of donkey F(ab′)₂ anti chicken IgY HRP conjugate (Jackson ImmunoResearch 703-036-155) diluted to 1:5,000 in block/diluent was then added, and the wells incubated for 1 h at room temperature. After aspirating and washing as above, 100 μl TMB substrate (420 μM TMB, 0.004% H₂O₂ in 0.1 M sodium acetate/citric acid buffer, pH 4.9) was added and incubated for 2 min before the reaction was stopped with 100 μl 2 N sulfuric acid. The absorbance was read at 450 nm with a Softmax P instrument, and Softmax software was used to determine the relative binding affinity (C value) with a 4-parameter fit.

[2] = target: T3, human FcγRIII (CD16), CD16a (F158), on CD16-transfected Jurkat cells (human, UniProt P08637 17-254); test: CD16 bridging assay, purified
T3 construct: whole, on cells

[3] = target: T3, human FcγRIII (CD16), CD16a (F158), on …; test: CD16 bridging assay, transient
[4] = target: T4, GST-tagged FcγRIII, CD16a (V158) (UniProt P08637 17-208, limits assumed); test: AlphaScreen competition vs huIgG1 beads, purified
T4 construct: the canonical entry carries F there; Captured by biotinylated anti-GST mAb on streptavidin donor beads; also called GST-FcγRIII; not shown: GST tag
Method: The relative binding affinities to FcγRIII (CD16), of the variant antibodies, was determined using an AlphaScreen assay (Amplified Luminescent Proximity Homogeneous Assay, PerkinElmer, MA, USA). Laser excitation of a donor bead excites oxygen, which if in close proximity to an acceptor bead generates a cascade of chemiluminescent events, ultimately leading to fluorescence emission at 520-620 nm. […] The reaction was carried out for one hour in a 25 μl volume and plates were read in the Fusion Alpha reader (PerkinElmer).

[5] = target: T3, human FcγRIII (CD16), CD16a (F158), on …; test: CD16 bridging assay, transient; remark: listed apart in the source

T2 sequence (P02745 23-245 limits assumed, chain 1 of 3): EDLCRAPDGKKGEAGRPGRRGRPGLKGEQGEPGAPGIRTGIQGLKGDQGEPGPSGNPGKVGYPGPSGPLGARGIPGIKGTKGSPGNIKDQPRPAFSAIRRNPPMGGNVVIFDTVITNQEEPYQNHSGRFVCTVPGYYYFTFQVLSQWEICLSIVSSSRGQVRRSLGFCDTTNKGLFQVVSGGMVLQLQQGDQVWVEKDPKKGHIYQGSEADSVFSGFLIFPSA
T2 sequence (P02746 28-253 limits assumed, chain 2 of 3): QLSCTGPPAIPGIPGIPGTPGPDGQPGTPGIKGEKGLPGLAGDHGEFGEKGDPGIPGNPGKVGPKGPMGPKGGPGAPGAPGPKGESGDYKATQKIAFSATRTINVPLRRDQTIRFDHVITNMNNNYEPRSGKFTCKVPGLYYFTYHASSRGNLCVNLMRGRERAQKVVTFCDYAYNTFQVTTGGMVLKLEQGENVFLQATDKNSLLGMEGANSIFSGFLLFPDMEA
T2 sequence (P02747 29-245 limits assumed, chain 3 of 3): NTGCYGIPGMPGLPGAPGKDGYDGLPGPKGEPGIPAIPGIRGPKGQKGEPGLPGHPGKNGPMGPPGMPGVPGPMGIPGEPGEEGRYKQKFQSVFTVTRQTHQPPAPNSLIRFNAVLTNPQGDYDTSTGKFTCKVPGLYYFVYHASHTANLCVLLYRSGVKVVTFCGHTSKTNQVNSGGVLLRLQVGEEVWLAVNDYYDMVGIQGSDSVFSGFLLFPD
T3 sequence (P08637 17-254): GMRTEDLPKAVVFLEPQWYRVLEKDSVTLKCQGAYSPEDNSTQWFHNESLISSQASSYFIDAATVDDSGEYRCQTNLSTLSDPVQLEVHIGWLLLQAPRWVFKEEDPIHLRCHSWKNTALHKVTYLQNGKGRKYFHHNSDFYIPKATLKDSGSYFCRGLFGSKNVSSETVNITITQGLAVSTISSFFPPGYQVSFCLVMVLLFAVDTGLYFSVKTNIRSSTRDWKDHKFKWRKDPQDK
T4 sequence (P08637 17-208 F176V limits assumed): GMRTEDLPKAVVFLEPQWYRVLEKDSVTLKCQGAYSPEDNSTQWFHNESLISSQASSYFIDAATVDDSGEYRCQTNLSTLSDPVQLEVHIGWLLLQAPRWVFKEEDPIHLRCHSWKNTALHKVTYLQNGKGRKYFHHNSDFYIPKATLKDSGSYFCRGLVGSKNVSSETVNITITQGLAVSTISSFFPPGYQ
T1 sequence (P12314 16-374): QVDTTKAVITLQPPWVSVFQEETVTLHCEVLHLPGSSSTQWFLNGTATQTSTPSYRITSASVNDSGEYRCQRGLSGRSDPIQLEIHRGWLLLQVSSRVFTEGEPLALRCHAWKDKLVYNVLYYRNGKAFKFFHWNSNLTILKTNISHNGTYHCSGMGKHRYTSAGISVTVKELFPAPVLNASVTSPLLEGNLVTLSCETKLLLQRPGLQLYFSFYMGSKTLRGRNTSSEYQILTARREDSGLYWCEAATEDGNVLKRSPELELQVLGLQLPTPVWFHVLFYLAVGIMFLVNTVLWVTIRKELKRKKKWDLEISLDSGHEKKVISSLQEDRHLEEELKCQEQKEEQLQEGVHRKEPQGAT

B1: chCB6-huIgG1 I332H (antibody, name in EU numbering)
heavy: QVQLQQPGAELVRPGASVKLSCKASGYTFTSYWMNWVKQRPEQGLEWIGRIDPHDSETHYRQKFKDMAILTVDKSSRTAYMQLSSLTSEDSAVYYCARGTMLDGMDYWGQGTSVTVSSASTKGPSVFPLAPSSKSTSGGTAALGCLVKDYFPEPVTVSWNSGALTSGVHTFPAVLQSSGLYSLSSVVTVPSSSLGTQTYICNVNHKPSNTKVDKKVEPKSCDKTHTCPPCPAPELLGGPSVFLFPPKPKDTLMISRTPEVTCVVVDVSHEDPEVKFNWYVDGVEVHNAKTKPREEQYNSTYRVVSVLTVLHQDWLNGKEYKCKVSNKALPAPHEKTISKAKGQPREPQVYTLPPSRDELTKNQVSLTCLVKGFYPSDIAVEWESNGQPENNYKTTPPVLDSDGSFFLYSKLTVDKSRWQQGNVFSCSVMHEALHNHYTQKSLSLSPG
light: QIVLTQSPAIMSASPGEKVTMTCRASSSVSHMHWYQQKSGTSPKRWIYDTSKLASGVPARFSGSGSGTSYSLTISSVEAEDAATYYCQQWSSNPLTFGAGTKLELKRTVAAPSVFIFPPSDEQLKSGTASVVCLLNNFYPREAKVQWKVDNALQSGNSQESVTEQDSKDSTYSLSSTLTLSKADYEKHKVYACEVTHQGLSSPVTKSFNRGEC
notes: copies: 2 + 2
binding result [1]: binds | binding result (human C1q (Sigma C0660)): binds | fold decrease in binding vs WT [2]: 2 fold

B2: chCB6-huIgG1 S239D (antibody, name in EU numbering)
heavy: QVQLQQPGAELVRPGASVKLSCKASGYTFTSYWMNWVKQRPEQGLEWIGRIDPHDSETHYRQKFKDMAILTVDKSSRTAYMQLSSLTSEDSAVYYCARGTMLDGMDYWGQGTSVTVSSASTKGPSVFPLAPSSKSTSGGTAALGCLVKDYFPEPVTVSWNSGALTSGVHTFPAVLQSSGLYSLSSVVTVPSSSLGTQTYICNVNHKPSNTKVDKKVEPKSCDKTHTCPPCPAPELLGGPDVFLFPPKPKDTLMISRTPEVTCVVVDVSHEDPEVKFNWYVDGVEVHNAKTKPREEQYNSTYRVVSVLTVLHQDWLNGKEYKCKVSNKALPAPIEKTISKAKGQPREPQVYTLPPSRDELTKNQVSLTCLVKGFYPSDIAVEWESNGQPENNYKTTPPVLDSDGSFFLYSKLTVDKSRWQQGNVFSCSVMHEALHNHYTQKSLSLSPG
light: QIVLTQSPAIMSASPGEKVTMTCRASSSVSHMHWYQQKSGTSPKRWIYDTSKLASGVPARFSGSGSGTSYSLTISSVEAEDAATYYCQQWSSNPLTFGAGTKLELKRTVAAPSVFIFPPSDEQLKSGTASVVCLLNNFYPREAKVQWKVDNALQSGNSQESVTEQDSKDSTYSLSSTLTLSKADYEKHKVYACEVTHQGLSSPVTKSFNRGEC
notes: copies: 2 + 2
fold increase in binding vs WT [3]: 6 fold | binding result [1]: binds | fold decrease in binding vs WT (human C1q (Sigma C0660)): 2 fold | fold increase in binding vs WT [4]: 9 fold | fold increase in binding vs WT [2]: 6 fold

B3: chCB6-huIgG1 I332D (antibody, name in EU numbering)
heavy: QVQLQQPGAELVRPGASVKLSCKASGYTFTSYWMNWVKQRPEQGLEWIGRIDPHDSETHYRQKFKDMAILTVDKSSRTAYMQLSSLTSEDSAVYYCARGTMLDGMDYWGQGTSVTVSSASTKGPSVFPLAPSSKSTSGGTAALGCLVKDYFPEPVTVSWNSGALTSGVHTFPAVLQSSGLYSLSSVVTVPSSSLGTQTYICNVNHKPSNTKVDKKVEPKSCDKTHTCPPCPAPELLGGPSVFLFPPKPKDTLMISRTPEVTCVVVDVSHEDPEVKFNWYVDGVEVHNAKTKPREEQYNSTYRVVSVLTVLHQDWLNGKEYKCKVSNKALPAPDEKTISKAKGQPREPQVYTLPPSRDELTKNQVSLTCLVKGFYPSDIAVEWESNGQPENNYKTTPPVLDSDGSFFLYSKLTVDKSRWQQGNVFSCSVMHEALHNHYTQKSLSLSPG
light: QIVLTQSPAIMSASPGEKVTMTCRASSSVSHMHWYQQKSGTSPKRWIYDTSKLASGVPARFSGSGSGTSYSLTISSVEAEDAATYYCQQWSSNPLTFGAGTKLELKRTVAAPSVFIFPPSDEQLKSGTASVVCLLNNFYPREAKVQWKVDNALQSGNSQESVTEQDSKDSTYSLSSTLTLSKADYEKHKVYACEVTHQGLSSPVTKSFNRGEC
notes: copies: 2 + 2
fold increase in binding vs WT [3]: 15 fold | binding result [1]: binds | binding result (human C1q (Sigma C0660)): binds | fold increase in binding vs WT [4]: 4 fold | fold increase in binding vs WT [2]: 9 fold

B4: chCB6-huIgG1 I332Q (antibody, name in EU numbering)
heavy: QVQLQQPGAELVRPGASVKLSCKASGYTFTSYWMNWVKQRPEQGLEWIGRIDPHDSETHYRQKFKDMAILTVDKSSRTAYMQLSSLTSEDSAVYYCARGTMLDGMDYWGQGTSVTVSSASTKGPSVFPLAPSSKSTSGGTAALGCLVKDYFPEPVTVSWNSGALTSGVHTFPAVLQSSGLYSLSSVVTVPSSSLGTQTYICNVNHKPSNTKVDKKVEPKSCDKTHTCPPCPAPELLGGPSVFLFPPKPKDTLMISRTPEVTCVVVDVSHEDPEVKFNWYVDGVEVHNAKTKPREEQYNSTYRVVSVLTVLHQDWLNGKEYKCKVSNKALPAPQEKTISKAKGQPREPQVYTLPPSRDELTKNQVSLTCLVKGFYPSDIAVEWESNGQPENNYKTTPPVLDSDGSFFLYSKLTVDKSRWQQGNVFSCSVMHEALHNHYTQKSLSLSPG
light: QIVLTQSPAIMSASPGEKVTMTCRASSSVSHMHWYQQKSGTSPKRWIYDTSKLASGVPARFSGSGSGTSYSLTISSVEAEDAATYYCQQWSSNPLTFGAGTKLELKRTVAAPSVFIFPPSDEQLKSGTASVVCLLNNFYPREAKVQWKVDNALQSGNSQESVTEQDSKDSTYSLSSTLTLSKADYEKHKVYACEVTHQGLSSPVTKSFNRGEC
notes: copies: 2 + 2
fold increase in binding vs WT [3]: 2 fold | binding result [1]: binds | binding result (human C1q (Sigma C0660)): binds | fold increase in binding vs WT [2]: 2 fold

B5: chCB6-huIgG1 H268P (antibody, name in EU numbering)
heavy: not shown
light: QIVLTQSPAIMSASPGEKVTMTCRASSSVSHMHWYQQKSGTSPKRWIYDTSKLASGVPARFSGSGSGTSYSLTISSVEAEDAATYYCQQWSSNPLTFGAGTKLELKRTVAAPSVFIFPPSDEQLKSGTASVVCLLNNFYPREAKVQWKVDNALQSGNSQESVTEQDSKDSTYSLSSTLTLSKADYEKHKVYACEVTHQGLSSPVTKSFNRGEC
notes: copies: 2 + 2
fold decrease in binding vs WT [5]: 3 fold

B6: chCB6-huIgG1 S239H (antibody, name in EU numbering)
heavy: not shown
light: QIVLTQSPAIMSASPGEKVTMTCRASSSVSHMHWYQQKSGTSPKRWIYDTSKLASGVPARFSGSGSGTSYSLTISSVEAEDAATYYCQQWSSNPLTFGAGTKLELKRTVAAPSVFIFPPSDEQLKSGTASVVCLLNNFYPREAKVQWKVDNALQSGNSQESVTEQDSKDSTYSLSSTLTLSKADYEKHKVYACEVTHQGLSSPVTKSFNRGEC
notes: copies: 2 + 2
binding result [5]: no binding

B7: chCB6-huIgG1 L328T (antibody, name in EU numbering)
heavy: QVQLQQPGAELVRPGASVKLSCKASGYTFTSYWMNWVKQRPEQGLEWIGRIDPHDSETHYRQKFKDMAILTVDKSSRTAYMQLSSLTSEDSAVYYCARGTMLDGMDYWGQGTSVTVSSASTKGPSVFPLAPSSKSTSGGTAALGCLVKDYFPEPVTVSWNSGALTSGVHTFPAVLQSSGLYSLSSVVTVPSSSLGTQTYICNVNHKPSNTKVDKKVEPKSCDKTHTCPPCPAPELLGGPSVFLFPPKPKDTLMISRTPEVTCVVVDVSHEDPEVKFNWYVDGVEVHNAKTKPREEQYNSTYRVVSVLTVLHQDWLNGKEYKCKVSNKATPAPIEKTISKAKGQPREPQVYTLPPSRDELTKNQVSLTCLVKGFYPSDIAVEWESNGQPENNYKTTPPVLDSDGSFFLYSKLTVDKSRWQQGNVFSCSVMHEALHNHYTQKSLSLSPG
light: QIVLTQSPAIMSASPGEKVTMTCRASSSVSHMHWYQQKSGTSPKRWIYDTSKLASGVPARFSGSGSGTSYSLTISSVEAEDAATYYCQQWSSNPLTFGAGTKLELKRTVAAPSVFIFPPSDEQLKSGTASVVCLLNNFYPREAKVQWKVDNALQSGNSQESVTEQDSKDSTYSLSSTLTLSKADYEKHKVYACEVTHQGLSSPVTKSFNRGEC
notes: copies: 2 + 2
fold decrease in binding vs WT [5]: 3 fold

B8: chCB6-huIgG1 G236A (antibody, name in EU numbering)
heavy: not shown
light: QIVLTQSPAIMSASPGEKVTMTCRASSSVSHMHWYQQKSGTSPKRWIYDTSKLASGVPARFSGSGSGTSYSLTISSVEAEDAATYYCQQWSSNPLTFGAGTKLELKRTVAAPSVFIFPPSDEQLKSGTASVVCLLNNFYPREAKVQWKVDNALQSGNSQESVTEQDSKDSTYSLSSTLTLSKADYEKHKVYACEVTHQGLSSPVTKSFNRGEC
notes: copies: 2 + 2
fold decrease in binding vs WT [5]: 2 fold

B9: chCB6-huIgG1 S239E (antibody, name in EU numbering)
heavy: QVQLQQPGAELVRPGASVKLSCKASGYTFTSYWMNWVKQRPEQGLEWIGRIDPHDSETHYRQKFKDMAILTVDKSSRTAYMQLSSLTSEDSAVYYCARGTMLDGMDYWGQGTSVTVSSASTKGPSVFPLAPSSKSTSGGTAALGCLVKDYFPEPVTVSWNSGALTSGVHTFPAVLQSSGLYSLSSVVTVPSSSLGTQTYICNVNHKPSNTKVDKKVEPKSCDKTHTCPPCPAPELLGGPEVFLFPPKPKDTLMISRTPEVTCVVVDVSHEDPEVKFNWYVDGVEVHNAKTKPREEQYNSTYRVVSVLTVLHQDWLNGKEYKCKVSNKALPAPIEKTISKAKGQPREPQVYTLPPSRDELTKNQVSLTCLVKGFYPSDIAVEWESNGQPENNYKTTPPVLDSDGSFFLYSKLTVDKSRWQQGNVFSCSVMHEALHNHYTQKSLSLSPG
light: QIVLTQSPAIMSASPGEKVTMTCRASSSVSHMHWYQQKSGTSPKRWIYDTSKLASGVPARFSGSGSGTSYSLTISSVEAEDAATYYCQQWSSNPLTFGAGTKLELKRTVAAPSVFIFPPSDEQLKSGTASVVCLLNNFYPREAKVQWKVDNALQSGNSQESVTEQDSKDSTYSLSSTLTLSKADYEKHKVYACEVTHQGLSSPVTKSFNRGEC
notes: copies: 2 + 2
fold increase in binding vs WT [3]: 4 fold | binding result [1]: binds | fold decrease in binding vs WT (human C1q (Sigma C0660)): 2 fold | fold increase in binding vs WT [4]: 8 fold | fold increase in binding vs WT [2]: 3 fold

B10: chCB6-huIgG1 L328Q (antibody, name in EU numbering)
heavy: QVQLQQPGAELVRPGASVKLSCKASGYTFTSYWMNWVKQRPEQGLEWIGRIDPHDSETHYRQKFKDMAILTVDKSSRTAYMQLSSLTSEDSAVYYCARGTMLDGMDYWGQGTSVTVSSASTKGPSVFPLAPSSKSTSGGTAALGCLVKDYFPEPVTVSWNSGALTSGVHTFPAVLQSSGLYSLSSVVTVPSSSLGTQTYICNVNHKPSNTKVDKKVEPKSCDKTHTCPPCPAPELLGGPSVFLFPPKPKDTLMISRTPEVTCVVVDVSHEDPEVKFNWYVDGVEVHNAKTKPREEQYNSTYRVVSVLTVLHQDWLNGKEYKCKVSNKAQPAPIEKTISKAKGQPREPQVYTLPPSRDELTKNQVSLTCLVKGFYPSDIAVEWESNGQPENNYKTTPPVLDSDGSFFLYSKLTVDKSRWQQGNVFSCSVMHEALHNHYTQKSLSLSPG
light: QIVLTQSPAIMSASPGEKVTMTCRASSSVSHMHWYQQKSGTSPKRWIYDTSKLASGVPARFSGSGSGTSYSLTISSVEAEDAATYYCQQWSSNPLTFGAGTKLELKRTVAAPSVFIFPPSDEQLKSGTASVVCLLNNFYPREAKVQWKVDNALQSGNSQESVTEQDSKDSTYSLSSTLTLSKADYEKHKVYACEVTHQGLSSPVTKSFNRGEC
notes: copies: 2 + 2
fold decrease in binding vs WT [3]: 3 fold | binding result [1]: binds | binding result (human C1q (Sigma C0660)): no binding | fold decrease in binding vs WT [2]: 2 fold

B11: chCB6-huIgG1 S239P (antibody, name in EU numbering)
heavy: not shown
light: QIVLTQSPAIMSASPGEKVTMTCRASSSVSHMHWYQQKSGTSPKRWIYDTSKLASGVPARFSGSGSGTSYSLTISSVEAEDAATYYCQQWSSNPLTFGAGTKLELKRTVAAPSVFIFPPSDEQLKSGTASVVCLLNNFYPREAKVQWKVDNALQSGNSQESVTEQDSKDSTYSLSSTLTLSKADYEKHKVYACEVTHQGLSSPVTKSFNRGEC
notes: copies: 2 + 2
binding result [5]: no binding

B12: chCB6-huIgG1 A330H (antibody, name in EU numbering)
heavy: not shown
light: QIVLTQSPAIMSASPGEKVTMTCRASSSVSHMHWYQQKSGTSPKRWIYDTSKLASGVPARFSGSGSGTSYSLTISSVEAEDAATYYCQQWSSNPLTFGAGTKLELKRTVAAPSVFIFPPSDEQLKSGTASVVCLLNNFYPREAKVQWKVDNALQSGNSQESVTEQDSKDSTYSLSSTLTLSKADYEKHKVYACEVTHQGLSSPVTKSFNRGEC
notes: copies: 2 + 2
binding result [5]: binds

B13: chCB6-huIgG1 H268D (antibody, name in EU numbering)
heavy: not shown
light: QIVLTQSPAIMSASPGEKVTMTCRASSSVSHMHWYQQKSGTSPKRWIYDTSKLASGVPARFSGSGSGTSYSLTISSVEAEDAATYYCQQWSSNPLTFGAGTKLELKRTVAAPSVFIFPPSDEQLKSGTASVVCLLNNFYPREAKVQWKVDNALQSGNSQESVTEQDSKDSTYSLSSTLTLSKADYEKHKVYACEVTHQGLSSPVTKSFNRGEC
notes: copies: 2 + 2
fold increase in binding vs WT [5]: 3 fold

B14: chCB6-huIgG1 L234Q (antibody, name in EU numbering)
heavy: not shown
light: QIVLTQSPAIMSASPGEKVTMTCRASSSVSHMHWYQQKSGTSPKRWIYDTSKLASGVPARFSGSGSGTSYSLTISSVEAEDAATYYCQQWSSNPLTFGAGTKLELKRTVAAPSVFIFPPSDEQLKSGTASVVCLLNNFYPREAKVQWKVDNALQSGNSQESVTEQDSKDSTYSLSSTLTLSKADYEKHKVYACEVTHQGLSSPVTKSFNRGEC
notes: copies: 2 + 2
fold decrease in binding vs WT [5]: 5 fold
